Results from article PMC3767169.

Target: complement C1q (human) (UniProt P02745)
Experiment: fluorescence polarisation

Chain of UniProt P02745 (P02745 23-245, chain 1 of 3): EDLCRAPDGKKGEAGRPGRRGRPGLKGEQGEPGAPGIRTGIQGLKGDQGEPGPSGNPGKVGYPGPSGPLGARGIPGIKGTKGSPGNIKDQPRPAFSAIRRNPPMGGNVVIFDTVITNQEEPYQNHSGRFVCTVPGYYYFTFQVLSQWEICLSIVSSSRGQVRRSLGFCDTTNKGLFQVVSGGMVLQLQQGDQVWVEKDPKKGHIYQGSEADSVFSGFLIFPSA
Chain of UniProt P02745 (P02746 28-253, chain 2 of 3, further chain): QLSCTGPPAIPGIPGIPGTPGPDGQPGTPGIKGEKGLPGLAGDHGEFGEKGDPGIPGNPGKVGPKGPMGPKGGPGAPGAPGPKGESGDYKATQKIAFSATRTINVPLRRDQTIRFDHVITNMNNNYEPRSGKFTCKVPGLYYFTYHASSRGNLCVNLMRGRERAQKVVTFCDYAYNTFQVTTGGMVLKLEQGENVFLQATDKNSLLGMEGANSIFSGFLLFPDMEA
Chain of UniProt P02745 (P02747 29-245, chain 3 of 3, further chain): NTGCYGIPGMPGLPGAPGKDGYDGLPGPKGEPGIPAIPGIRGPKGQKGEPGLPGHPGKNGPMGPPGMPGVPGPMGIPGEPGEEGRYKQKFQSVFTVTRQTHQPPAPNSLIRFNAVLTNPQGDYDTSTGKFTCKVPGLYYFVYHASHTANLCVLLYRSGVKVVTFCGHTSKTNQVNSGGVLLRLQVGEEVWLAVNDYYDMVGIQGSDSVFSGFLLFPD

modified C-reactive protein (mCRP) (from UniProt P02741 19-224) (natural protein)
change in anisotropy (Δr): 0.081
